In the supplement of paper PMC7877785:
± gives the uncertainty stated by the source.

Assay: self-splicing fitness, log relative to wild type (ln ratio); higher = more splicing; Tetrahymena group I intron in knt gene, E. coli kanamycin selection, DiMSum; sequences stand for … in CUCUCU…GGAGGGAAAAGUUAUCAGGCAUGCACCUGGUAGCUAGUCUUUAAACCAAUAGAUUGCAUCGGUUUAAAAGGCAAGACCGUCAAAUUGCGGGAAAGGGGUCAACAGCCGUUCAGUACCAAGUCUCAGGGGAAACUUUGAGAUGGCCUUGCAAAGGGUAUGGUAAUAAGCUGACGGACAUGGUCCUAACCACGCAGCCAAGUCCUAAGUCAACAGAUCUUCUGUUGAUAUGGAUGCAGUUCACAGACUAAAUGUCGGUCGGGGAAGAUGUAUUCUUCUCAUAAGAUAUAGUCGGACCUCUCCUUAAUGGGAGCUAGCGGAUGAAGUGAUGCAACACUGGAGCCGCUGGGAACUAAUUUGUAUGCGAAAGUAUAUUGAUUAGUUUUGGAGUACUCGUGGUCG
Outline: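 DiMSum derived fitness as the error-weighted combination of fold changes across replicates, kanamycin versus no kanamycin, normalised to wild type. E. coli BL21(DE3) held the library, which randomised all eight P1ex-region intron nucleotides within the knt kanamycin-resistance gene on pET-22b(+). Six replicate transformations grew overnight at 37°C or 30°C on LB agar with or without 25 μg/mL kanamycin, also containing 100 μg/mL carbenicillin, 50 μM IPTG and 0.2% rhamnose, and pooled colonies were amplicon-sequenced on an Illumina HiSeq 2500.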

Sequence	self-splicing fitness (ln) (30 °C)	self-splicing fitness (ln) (37 °C)
CGAAAGCAAUAUUACGUGCA	-2.12 ± 0.12	-1.13 ± 0.12
CGAAAGCAAUAUUACGUGCC	-3.18 ± 0.17	-1.95 ± 0.17
CGAAAGCAAUAUUACGUGCG	-1.22 ± 0.076	-0.524 ± 0.097
CGACAGCAAUAUUACGAACC	-3.27 ± 0.27	-0.556 ± 0.2
CGACAGCAAUAUUACGAAUC	-4.11 ± 0.46	-2.71 ± 0.34
CGACAGCAAUAUUACGACAU	-2.444 ± 0.014	-1.33 ± 0.033
CGACAGCAAUAUUACGACCC	-1.31 ± 0.19	0.117 ± 0.23
CGACAGCAAUAUUACGACCU	-1.56 ± 0.099	0.317 ± 0.11
CGACAGCAAUAUUACGACUA	-2.15 ± 0.13	0.027 ± 0.092
CGACAGCAAUAUUACGACUC	-2.83 ± 0.18	-1.18 ± 0.15
CGACAGCAAUAUUACGAGAA	–	-2.41 ± 0.23
CGACAGCAAUAUUACGAGCU	-2.86 ± 0.15	-2.17 ± 0.17
CGACAGCAAUAUUACGAGGA	-3.91 ± 0.2	-2.53 ± 0.18
CGACAGCAAUAUUACGAGGG	-3.67 ± 0.13	-2.99 ± 0.15
CGACAGCAAUAUUACGAGUU	-2.98 ± 0.1	-3.25 ± 0.15
CGACAGCAAUAUUACGAUCU	-0.335 ± 0.1	0.552 ± 0.094
CGACAGCAAUAUUACGCCAG	-1.73 ± 0.11	-0.84 ± 0.13
CGACAGCAAUAUUACGCGAG	-1.5 ± 0.16	-2.32 ± 0.21
CGACAGCAAUAUUACGCGGG	-2.71 ± 0.12	-2.39 ± 0.15
CGACAGCAAUAUUACGCGGU	-4.5 ± 0.15	-2.85 ± 0.14

Sequence	self-splicing fitness (ln) (30 °C)	self-splicing fitness (ln) (37 °C)
CGACAGCAAUAUUACGCUCU	-1.69 ± 0.11	-0.145 ± 0.11
CGACAGCAAUAUUACGGAGA	-2.18 ± 0.15	-3.29 ± 0.28
CGACAGCAAUAUUACGGAGC	-2.83 ± 0.19	-3.04 ± 0.25
CGACAGCAAUAUUACGGGAC	-4.58 ± 0.26	-1.71 ± 0.14
CGACAGCAAUAUUACGGGGU	-4.03 ± 0.17	-3.01 ± 0.17
CGACAGCAAUAUUACGGGUC	-4.52 ± 0.32	-3.14 ± 0.29
CGACAGCAAUAUUACGUACG	-3.63 ± 0.21	-2.92 ± 0.38
CGACAGCAAUAUUACGUCAU	-3.41 ± 0.24	-1.54 ± 0.14
CGACAGCAAUAUUACGUCCG	-1.31 ± 0.12	-1.04 ± 0.12
CGACAGCAAUAUUACGUCUA	-0.367 ± 0.052	0.0477 ± 0.061
CGACAGCAAUAUUACGUUCA	-0.308 ± 0.054	0.198 ± 0.087
CGACAGCAAUAUUACGUUGA	-3.63 ± 0.15	-1.85 ± 0.1
CGAGAGCAAUAUUACGAACG	-2.48 ± 0.2	-1.04 ± 0.21
CGAGAGCAAUAUUACGACCA	-2.78 ± 0.37	–
CGAGAGCAAUAUUACGAGAC	-2.64 ± 0.46	–
CGAGAGCAAUAUUACGAGCG	-0.966 ± 0.11	-1.72 ± 0.18
CGAGAGCAAUAUUACGAGGG	-4.22 ± 0.31	-3.16 ± 0.27
CGAGAGCAAUAUUACGAUCC	-3.95 ± 0.46	-2.36 ± 0.28
CGAGAGCAAUAUUACGAUGC	–	-1.63 ± 0.35
